Biological target: glutathione-S-transferase (GST)-tagged recombinant RARa ligand binding domain (LBD) (UniProt P10276)
Test: cell-free TR-FRET coactivator recruitment assay; the concentration varied is that of the retinoid Rald, not of either protein

Sequence of glutathione-S-transferase (GST)-tagged recombinant RARa ligand binding domain (LBD) (P10276 183-417 limits assumed): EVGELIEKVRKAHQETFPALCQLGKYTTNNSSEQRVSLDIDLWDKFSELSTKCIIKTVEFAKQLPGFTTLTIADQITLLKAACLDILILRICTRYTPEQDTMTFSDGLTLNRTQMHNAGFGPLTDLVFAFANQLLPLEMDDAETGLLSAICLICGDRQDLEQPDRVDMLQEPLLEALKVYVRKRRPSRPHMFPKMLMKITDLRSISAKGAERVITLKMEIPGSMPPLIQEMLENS

EC50 of retinaldehyde (Rald, small-molecule ligand) for recruitment of PGC-1a to RARa: 82 nM
Substance: fluorescein-labeled coactivator peptide (PGC-1a)

Reference: US20140378530A1
